Our source for the stoichiometry N values is PMC3571961.

For assay [1], the target named is C-terminal domain of minor ampullate spidroin (CTDMi) from N. antipodiana (Nephila antipodiana). The assay is described as follows: SEC; Superdex 75 PG, 120 ml, 10 mM sodium phosphate pH 6.8 without NaCl, 1 ml/min; apparent molecular weight against standards. In general terms: SEC sorts molecules by how far they enter the pores of the column.
The target of assay [2] is Tri-domain miniature fibroin RP-LK-CTDMi of minor ampullate spidroin from N. antipodiana (Nephila antipodiana). The assay is described as above.

The term stoichiometry N denotes the number of molecules, sites or subunits per partner or assembly. As to “C-terminal domain of minor ampullate spidroin (CTDMi) from N. antipodiana (domain or fragment)”, the stoichiometry N in assay [1] was 2.

For the substance “Tri-domain miniature fibroin RP-LK-CTDMi of minor ampullate spidroin from N. antipodiana (domain or fragment)”, the stoichiometry N in assay [2] was determined as 2.
